Laboratory results reported in US20100227824A1 (SYMTHERA CANADA, published 2010).
Ends that are not written are not given here. * marks the point of attachment. Biotin = O=C1N[C@H]2[C@H](CS[C@H]2CCCCC(=O)*)N1

What was measured:
[1] = biological target: T1, IL-8 (CXCL8) (UniProt P10145 28-99, limits assumed); test: SPR, ProteOn XPR36, GLM chip
T1 construct: also called IL-8(72aa); IL-8(77aa)
T1 sequence (looked up): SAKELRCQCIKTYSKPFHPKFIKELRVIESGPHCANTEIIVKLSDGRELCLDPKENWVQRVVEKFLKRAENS
Experimental: (§1) Surface Plasmon Resonance (SPR): SPR was performed to make a quantitative determination of CK-peptide affinity. SPR measures the apparent equilibrium dissociation constant (KD) of the CK-binding peptide in the CK-peptide complex. KD is the ratio of the rate constants, Kd (1/s) and Kₐ (1/Ms), Kd/Kₐ. SPR was done with the ProteOn XPR36-Protein Interaction Array System (BioRad, Israel) with the Sensor Chip, GLM (sensor range 12-15 K response units).
(§2) Summary of Results: Affinity of Chemokine—Peptide Inteaction. […] The affinity with which peptides interact with CKs is relevant for low affinity reagents that are intended to engage multiple disease-related target proteins. SPR analysis was employed to determine the apparent equilibrium dissociation constants (KD) of CK-peptide complexes. […] Peptide binding in the micro-milli molar range is low affinity interaction. SPR analysis also corroborated differential binding measurements made by the micro-array analysis (FIG. 25b).

[2] = biological target: T2, Mig (CXCL9) (UniProt Q07325 23-125); test: SPR, ProteOn XPR36, GLM chip
T2 construct: Bought chemokine
T2 sequence (looked up): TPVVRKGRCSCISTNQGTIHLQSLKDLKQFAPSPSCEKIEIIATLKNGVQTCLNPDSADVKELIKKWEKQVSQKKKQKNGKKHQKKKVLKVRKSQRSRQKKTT
Experimental: as §1, §2

[3] = biological target: T3, Eotaxin (CCL11) (UniProt P51671 24-97); test: micro-array, phage-presented peptide on printed CK
T3 construct: Bought chemokine
T3 sequence (P51671 24-97 limits assumed): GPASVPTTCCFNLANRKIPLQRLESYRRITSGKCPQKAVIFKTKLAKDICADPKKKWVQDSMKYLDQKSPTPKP
Experimental: (§3) (1) Printing: Chemokine (CK) solution (in water) was serially diluted with Print Reagent (GenTel BioSurfaces USA) to final concentrations of 50 μg and 25 μg/ml. BSA/BSA-Biotin control solutions (in water) were diluted with Print Reagent to 100 μg/ml. Amplified stock of M13 phage control (M13KEgIII Cloning Vector, New England Biolabs, Cat.No.E8101S) was stored in Tris Buffered Saline (TBS; pH7.5, 4° C.) and diluted with Print Reagent to the working titre (10^8 pfu/μl). An automated spotting robot (16 pin print tool, 0.4mm head; BioRobotics, UK) was used to print the CK/BSA control/M13 control, 5 repeats per sample (CK 25 μg/ml and 50 μg/ml; BSA 100 μg/ml; M13 20 μl), on PATH Protein Microarray Slides (GenTel, Prod.No.2-1005/-1025) at […], and 50-70% relative humidity. Printed micro-array slides were stored at Room Temperature (RT) or 4° C. for at least 24 h before use.
(§4) (2) Blocking: Block Buffer (500 μl/partition; PATHblock, GenTel, Prod.No.2-1014) was applied to the slide for 1 hour at room temp (RT). After removal of Block Buffer, the slide was air dried for 25 minutes;
(§5) (11) Analysis: Quantitative analysis of micro-array was performed by the SpotReader program of Niles Scientific (USA) and presented as Relative Fluorescence (RF) as a function of CK concentration. Micro-array readout (Cy3 fluorescence) was quantified to determine the relative binding affinities of a CBP for the CKs and by inference, the specificity of the CBP for binding to a CK.

[4] = biological target: T4, I-TAC (CXCL11) (UniProt O14625 22-94); test: micro-array, phage-presented peptide on printed CK
T4 construct: Bought chemokine; also called I-TACK
T4 sequence (looked up): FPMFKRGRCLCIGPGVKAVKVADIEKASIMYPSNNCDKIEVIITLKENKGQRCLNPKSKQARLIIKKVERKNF
Experimental: as §3, §4, §5

[5] = biological target: T5, Lymphotactin (XCL-1) (UniProt P47992 23-114, limits assumed); test: micro-array, phage-presented peptide on printed CK
T5 construct: Bought chemokine
T5 sequence (looked up): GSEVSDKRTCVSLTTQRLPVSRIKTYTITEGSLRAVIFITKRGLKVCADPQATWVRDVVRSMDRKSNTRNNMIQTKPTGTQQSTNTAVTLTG
Experimental: as §3, §4, §5

[6] = biological target: T6, Eotaxin 2 (CCL24) (UniProt O00175 27-104, limits assumed); test: micro-array, phage-presented peptide on printed CK
T6 construct: Bought chemokine
T6 sequence (looked up): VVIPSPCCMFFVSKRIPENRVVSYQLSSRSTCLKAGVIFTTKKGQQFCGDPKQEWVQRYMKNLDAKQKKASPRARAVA
Experimental: as §3, §4, §5

[7] = biological target: T7, MCP-4 (CCL13) (UniProt Q99616 24-98); test: micro-array, phage-presented peptide on printed CK
T7 construct: Bought chemokine
T7 sequence (Q99616 24-98 limits assumed): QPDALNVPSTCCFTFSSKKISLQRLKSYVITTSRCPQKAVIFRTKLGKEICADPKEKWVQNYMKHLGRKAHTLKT
Experimental: as §3, §4, §5

[8] = biological target: T8, RANTES (CCL5) (UniProt P13501 24-91); test: micro-array, phage-presented peptide on printed CK
T8 construct: Bought chemokine
T8 sequence (looked up): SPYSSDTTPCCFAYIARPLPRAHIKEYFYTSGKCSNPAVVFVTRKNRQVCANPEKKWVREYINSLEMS
Experimental: as §3, §4, §5

[9] = biological target: T9, I-309 (CCL1) (UniProt P22362 23-96, limits assumed); test: micro-array, phage-presented peptide on printed CK
T9 construct: Bought chemokine
T9 sequence (looked up): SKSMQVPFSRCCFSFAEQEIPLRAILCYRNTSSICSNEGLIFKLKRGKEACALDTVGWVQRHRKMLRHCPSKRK
Experimental: as §3, §4, §5

[10] = biological target: T10, BCA-1 (CXCL13) (UniProt O43927 23-109); test: micro-array, phage-presented peptide on printed CK
T10 construct: Bought chemokine
T10 sequence (looked up): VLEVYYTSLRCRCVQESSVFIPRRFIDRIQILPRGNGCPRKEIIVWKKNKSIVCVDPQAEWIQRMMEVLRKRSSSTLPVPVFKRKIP
Experimental: as §3, §4, §5

[11] = biological target: T11, Eotaxin 3 (CCL26) (UniProt Q9Y258 24-94); test: micro-array, phage-presented peptide on printed CK
T11 construct: Bought chemokine
T11 sequence (looked up): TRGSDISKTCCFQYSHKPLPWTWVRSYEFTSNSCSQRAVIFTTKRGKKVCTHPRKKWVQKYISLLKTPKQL
Experimental: as §3, §4, §5

[12] = biological target: T2, Mig (CXCL9); test: micro-array, phage-presented peptide on printed CK
Experimental: as §3, §4, §5

[13] = biological target: T12, GRO-β (CXCL2) (UniProt P19875 35-107); test: micro-array, phage-presented peptide on printed CK
T12 construct: Bought chemokine
T12 sequence (looked up): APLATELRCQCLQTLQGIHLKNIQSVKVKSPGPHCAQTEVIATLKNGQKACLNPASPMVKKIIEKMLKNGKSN
Experimental: as §3, §4, §5

[14] = biological target: T13, MCP-2 (CCL8) (UniProt P80075 24-99); test: micro-array, phage-presented peptide on printed CK
T13 construct: Bought chemokine
T13 sequence (looked up): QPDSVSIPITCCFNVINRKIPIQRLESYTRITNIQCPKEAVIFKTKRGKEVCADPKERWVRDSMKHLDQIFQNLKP
Experimental: as §3, §4, §5

[15] = biological target: T14, MCP-1 (CCL2) (UniProt P13500 24-99); test: micro-array, phage-presented peptide on printed CK
T14 construct: Bought chemokine
T14 sequence (P13500 24-99 limits assumed): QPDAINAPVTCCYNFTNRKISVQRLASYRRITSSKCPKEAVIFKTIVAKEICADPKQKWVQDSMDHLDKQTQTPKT
Experimental: as §3, §4, §5

[16] = biological target: T15, TECK (CCL25) (UniProt O15444 24-150); test: micro-array, phage-presented peptide on printed CK
T15 construct: Bought chemokine
T15 sequence (looked up): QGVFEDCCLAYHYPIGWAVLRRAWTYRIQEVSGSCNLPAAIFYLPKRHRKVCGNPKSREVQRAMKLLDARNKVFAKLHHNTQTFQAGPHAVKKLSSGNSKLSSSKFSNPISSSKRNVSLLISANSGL
Experimental: as §3, §4, §5

[17] = biological target: T16, MDC(69aa) (CCL22) (UniProt O00626 25-93); test: micro-array, phage-presented peptide on printed CK
T16 construct: Bought chemokine
T16 sequence (looked up): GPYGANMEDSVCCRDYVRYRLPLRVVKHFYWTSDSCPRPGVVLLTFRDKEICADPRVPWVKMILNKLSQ
Experimental: as §3, §4, §5

[18] = biological target: T3, Eotaxin (CCL11); test: micro-array, biotinylated peptide on printed CK
[19] = biological target: T17, Exodus-2 (CCL21) (UniProt O00585 24-134); test: micro-array, biotinylated peptide on printed CK
T17 construct: Bought chemokine
T17 sequence (looked up): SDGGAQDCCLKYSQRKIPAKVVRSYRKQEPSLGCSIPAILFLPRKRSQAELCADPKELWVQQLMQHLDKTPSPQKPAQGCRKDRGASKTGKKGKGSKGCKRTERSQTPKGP

[20] = biological target: T7, MCP-4 (CCL13); test: micro-array, biotinylated peptide on printed CK
[21] = biological target: T8, RANTES (CCL5); test: micro-array, biotinylated peptide on printed CK
[22] = biological target: T18, SDF-1α (CXCL12) (UniProt P48061-2 22-89); test: micro-array, biotinylated peptide on printed CK
T18 construct: Alpha isoform of CXCL12; also called SDFα
T18 sequence (P48061 22-89 limits assumed): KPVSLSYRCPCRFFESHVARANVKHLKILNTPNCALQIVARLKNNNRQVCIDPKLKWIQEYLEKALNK

[23] = biological target: T9, I-309 (CCL1); test: micro-array, biotinylated peptide on printed CK
[24] = biological target: T19, SDF-1β (CXCL12) (UniProt P48061 22-93); test: micro-array, biotinylated peptide on printed CK
T19 construct: Beta isoform of CXCL12; also called SDFβ
T19 sequence (P48061 22-93 limits assumed): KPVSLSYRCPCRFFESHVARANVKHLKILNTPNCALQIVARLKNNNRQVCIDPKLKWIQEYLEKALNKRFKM

[25] = biological target: T11, Eotaxin 3 (CCL26); test: micro-array, biotinylated peptide on printed CK
[26] = biological target: T2, Mig (CXCL9); test: micro-array, biotinylated peptide on printed CK
[27] = biological target: T20, MIP-3α (CCL20) (UniProt P78556 27-96); test: micro-array, biotinylated peptide on printed CK
T20 construct: Bought chemokine
T20 sequence (P78556 27-96 limits assumed): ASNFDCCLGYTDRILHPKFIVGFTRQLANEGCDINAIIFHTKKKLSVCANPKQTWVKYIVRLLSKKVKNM

[28] = biological target: T14, MCP-1 (CCL2); test: micro-array, biotinylated peptide on printed CK
[29] = biological target: T15, TECK (CCL25); test: micro-array, biotinylated peptide on printed CK
[30] = biological target: T4, I-TAC (CXCL11); test: micro-array, biotinylated peptide on printed CK
[31] = biological target: T5, Lymphotactin (XCL-1); test: micro-array, biotinylated peptide on printed CK
[32] = biological target: T6, Eotaxin 2 (CCL24); test: micro-array, biotinylated peptide on printed CK
[33] = biological target: T10, BCA-1 (CXCL13); test: micro-array, biotinylated peptide on printed CK
[34] = biological target: T12, GRO-β (CXCL2); test: micro-array, biotinylated peptide on printed CK
[35] = biological target: T1, IL-8 (CXCL8); test: micro-array, phage-presented peptide on printed CK
Experimental: as §3, §4, §5

[36] = biological target: T17, Exodus-2 (CCL21); test: micro-array, phage-presented peptide on printed CK
Experimental: as §3, §4, §5

[37] = biological target: T21, CTAC (CCL27) (UniProt Q9Y4X3 25-112); test: micro-array, phage-presented peptide on printed CK
T21 construct: Bought chemokine
T21 sequence (looked up): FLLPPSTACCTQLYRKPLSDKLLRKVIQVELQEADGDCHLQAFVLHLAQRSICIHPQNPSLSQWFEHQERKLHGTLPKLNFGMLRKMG
Experimental: as §3, §4, §5

[38] = biological target: T18, SDF-1α (CXCL12); test: micro-array, phage-presented peptide on printed CK
Experimental: as §3, §4, §5

[39] = biological target: T19, SDF-1β (CXCL12); test: micro-array, phage-presented peptide on printed CK
Experimental: as §3, §4, §5

B1: CBP6 (VTTFFDYDYGAPC, from the N-terminal of CCR2) (peptide)
peptide: VTTFFDYDYGAPC
notes: Peptide used in SPR; also called CB6R2
1060 µM: Kd [1]
28.2 µM: Kd [2]

B2: Phage-Presented Peptide 16 (Ph-p16) (peptide)
peptide: HHTCSLHFP
binds: binding result [3] | binding result [4] | binding result [5] | binding result [6] | binding result [9] | binding result [10] | binding result [11] | binding result [12] | binding result [13] | binding result [14] | binding result [15] | binding result [16] | binding result [17]
> 15000 RFU: Relative Fluorescence Units (RFU) [7] | Relative Fluorescence Units (RFU) [8]

B3: Chemokine Binding Peptide 5 (CBP5) (peptide)
peptide: Biotin-LFGNDCE
notes: Synthetic biotinylated peptide, not phage-presented
binds: binding result [19] | binding result [22] | binding result [23] | binding result [24] | binding result [26] | binding result [27] | binding result [28] | binding result [29]
> 2500 RFU: Relative Fluorescence Units (RFU) [18] | Relative Fluorescence Units (RFU) [20] | Relative Fluorescence Units (RFU) [21] | Relative Fluorescence Units (RFU) [25]

B4: Chemokine Binding Peptide 10 (CBP10) (peptide)
peptide: Biotin-FFGLNNC
binds: binding result [18] | binding result [30] | binding result [31] | binding result [32] | binding result [22] | binding result [23] | binding result [24] | binding result [33] | binding result [25] | binding result [34] | binding result [29]
> 600 RFU: Relative Fluorescence Units (RFU) [28]

B5: Phage-Presented Peptide 30 (Ph-p30) (peptide)
peptide: DYDYGAPC
binds: binding result [5] | binding result [36] | binding result [37] | binding result [38] | binding result [39] | binding result [10] | binding result [16] | binding result [17]
> 15000 RFU: Relative Fluorescence Units (RFU) [3] | Relative Fluorescence Units (RFU) [35] | Relative Fluorescence Units (RFU) [4] | Relative Fluorescence Units (RFU) [6] | Relative Fluorescence Units (RFU) [7] | Relative Fluorescence Units (RFU) [8] | Relative Fluorescence Units (RFU) [9] | Relative Fluorescence Units (RFU) [11] | Relative Fluorescence Units (RFU) [12] | Relative Fluorescence Units (RFU) [14] | Relative Fluorescence Units (RFU) [15]
